In patent publication US20140274782A1 (Stanford University, published 2014):

Key:
[1] = target: SERPINB2-serpin peptidase inhibitor, clade B (ovalbumin), member 2 (SERPINB2) (human, UniProt P05120 1-415); assay: ProtoArray, GST-treated control array;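 also: human protein microarray (about 9500 recombinant proteins) incubated overnight with GST alone plus SAM cofactor as the negative control for G9a SET domain methylation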
[2] = target: T1, HIC2-Hypermethylated in cancer 2 protein (human, UniProt Q96JB3 1-615, limits assumed); assay: ProtoArray, GST-treated control array;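 also: human protein microarray (about 9500 recombinant proteins) incubated overnight with GST alone plus SAM cofactor as the negative control for G9a SET domain methylation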
T1 sequence (looked up): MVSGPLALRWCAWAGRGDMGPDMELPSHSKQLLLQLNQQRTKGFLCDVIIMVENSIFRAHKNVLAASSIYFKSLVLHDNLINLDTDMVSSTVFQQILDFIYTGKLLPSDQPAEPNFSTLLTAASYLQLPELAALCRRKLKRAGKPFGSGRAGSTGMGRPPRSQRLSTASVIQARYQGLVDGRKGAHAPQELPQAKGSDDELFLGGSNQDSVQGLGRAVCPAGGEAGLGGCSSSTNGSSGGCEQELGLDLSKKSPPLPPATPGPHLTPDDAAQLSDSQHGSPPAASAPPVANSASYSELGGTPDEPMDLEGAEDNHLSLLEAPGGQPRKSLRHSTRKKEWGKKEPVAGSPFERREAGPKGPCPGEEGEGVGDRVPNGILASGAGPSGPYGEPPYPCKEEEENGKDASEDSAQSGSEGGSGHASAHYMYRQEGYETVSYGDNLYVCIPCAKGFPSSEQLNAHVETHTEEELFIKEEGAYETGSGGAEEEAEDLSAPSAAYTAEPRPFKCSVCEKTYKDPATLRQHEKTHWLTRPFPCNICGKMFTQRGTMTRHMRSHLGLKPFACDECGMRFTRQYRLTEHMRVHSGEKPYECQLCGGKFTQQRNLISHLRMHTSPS

SCGB2A2-Mammaglobin-A = SCGB2A2-Mammaglobin-A (human, UniProt Q13296 19-93, limits assumed); assay: ProtoArray, GST-treated control array;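 also: human protein microarray (about 9500 recombinant proteins) incubated overnight with GST alone plus SAM cofactor as the negative control for G9a SET domain methylation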
Sequence of SCGB2A2-Mammaglobin-A (Q13296 19-93 limits assumed): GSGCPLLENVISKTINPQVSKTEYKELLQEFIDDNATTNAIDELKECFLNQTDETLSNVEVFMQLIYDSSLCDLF

[3] = target: T2, TCTA-T-cell leukemia translocation altered gene (TCTA) (human, UniProt P57738 1-103); assay: ProtoArray, GST-treated control array;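 also: human protein microarray (about 9500 recombinant proteins) incubated overnight with GST alone plus SAM cofactor as the negative control for G9a SET domain methylation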
T2 sequence (looked up): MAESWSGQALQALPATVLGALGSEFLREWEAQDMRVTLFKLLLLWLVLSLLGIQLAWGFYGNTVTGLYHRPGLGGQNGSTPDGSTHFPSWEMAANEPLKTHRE

[4] = target: T3, SMYD3-SET and MYND domain containing 3 (SMYD3) (human, UniProt Q9H7B4 1-428, limits assumed); assay: ProtoArray, GST-treated control array
T3 sequence (looked up): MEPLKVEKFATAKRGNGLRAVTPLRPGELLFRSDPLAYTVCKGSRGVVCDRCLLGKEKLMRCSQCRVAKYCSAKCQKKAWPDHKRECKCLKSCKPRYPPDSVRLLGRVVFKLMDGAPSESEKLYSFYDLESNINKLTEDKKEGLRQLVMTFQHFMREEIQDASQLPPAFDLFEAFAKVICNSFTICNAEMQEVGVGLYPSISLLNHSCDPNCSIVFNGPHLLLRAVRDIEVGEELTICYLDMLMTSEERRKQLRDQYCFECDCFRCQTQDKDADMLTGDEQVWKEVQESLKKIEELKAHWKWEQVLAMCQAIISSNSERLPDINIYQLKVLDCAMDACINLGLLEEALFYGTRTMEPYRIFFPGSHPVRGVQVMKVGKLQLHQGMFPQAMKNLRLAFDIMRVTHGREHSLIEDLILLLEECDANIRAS

[5] = target: MGC4473-hypothetical protein MGC4473 (MGC4473) (human); assay: ProtoArray, GST-treated control array
[6] = target: T4, TGDS-TDP-glucose 4,6-dehydratase (TGDS) (human, UniProt O95455 1-350); assay: ProtoArray, GST-treated control array
T4 sequence (looked up): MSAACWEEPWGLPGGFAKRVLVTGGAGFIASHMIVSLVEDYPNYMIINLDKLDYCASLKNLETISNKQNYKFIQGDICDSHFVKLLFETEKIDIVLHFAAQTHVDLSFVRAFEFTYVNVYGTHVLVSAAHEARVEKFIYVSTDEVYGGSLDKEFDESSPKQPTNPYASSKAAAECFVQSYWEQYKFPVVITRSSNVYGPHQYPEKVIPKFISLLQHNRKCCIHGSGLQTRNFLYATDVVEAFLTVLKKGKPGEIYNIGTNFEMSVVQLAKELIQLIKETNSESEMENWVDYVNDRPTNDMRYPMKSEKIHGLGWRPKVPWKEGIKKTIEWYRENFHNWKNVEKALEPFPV

[7] = target: N/A-cDNA clone IMAGE:4623222, partial cds (human); assay: ProtoArray, GST-treated control array
[8] = target: CDC2-cell division cycle 2, G1 to S and G2 to M (CDC2), transcript variant 1 (human, UniProt P06493 1-297); assay: ProtoArray, GST-treated control array
Sequence of CDC2-cell division cycle 2, G1 to S and G2 to M (CDC2), transcript variant 1 (P06493 whole entry, change not shown): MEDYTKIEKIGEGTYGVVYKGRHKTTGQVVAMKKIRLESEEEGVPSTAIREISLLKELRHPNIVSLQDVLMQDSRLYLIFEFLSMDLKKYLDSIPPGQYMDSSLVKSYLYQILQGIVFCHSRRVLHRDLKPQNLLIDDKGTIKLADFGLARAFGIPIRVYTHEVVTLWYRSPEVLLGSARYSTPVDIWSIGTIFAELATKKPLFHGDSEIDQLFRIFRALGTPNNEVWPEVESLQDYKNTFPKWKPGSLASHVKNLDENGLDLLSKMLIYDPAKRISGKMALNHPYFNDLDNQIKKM

[9] = target: LOC145788-PREDICTED: Homo sapiens hypothetical LOC145788 (LOC145788) (human); assay: ProtoArray, GST-treated control array
[10] = target: T5, GGPS1-Geranylgeranyl pyrophosphate synthetase (human, UniProt O95749 1-300); assay: ProtoArray, GST-treated control array
T5 sequence (looked up): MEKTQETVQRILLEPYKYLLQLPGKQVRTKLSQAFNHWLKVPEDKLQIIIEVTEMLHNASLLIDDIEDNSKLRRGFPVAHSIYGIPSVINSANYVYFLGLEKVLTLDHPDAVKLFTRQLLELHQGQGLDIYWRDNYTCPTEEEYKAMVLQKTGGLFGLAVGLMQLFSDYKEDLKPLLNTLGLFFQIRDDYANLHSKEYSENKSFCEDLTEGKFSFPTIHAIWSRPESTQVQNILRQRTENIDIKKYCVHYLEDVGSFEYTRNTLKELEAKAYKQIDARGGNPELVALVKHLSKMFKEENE

[11] = target: LOC145788, G9a-methylated (human); assay: ProtoArray, G9a array SNR minus GST array SNR
MGC4473, G9a-methylated = MGC4473, G9a-methylated (human); assay: ProtoArray, G9a array SNR minus GST array SNR
[12] = target: cDNA clone IMAGE:4623222 product, G9a-methylated (human); assay: ProtoArray, G9a array SNR minus GST array SNR
[13] = target: LOC400500, G9a-methylated (human); assay: ProtoArray, G9a array SNR minus GST array SNR

Sequence of SERPINB2-serpin peptidase inhibitor, clade B (ovalbumin), member 2 (SERPINB2) (P05120 whole entry, the tested form may be a part): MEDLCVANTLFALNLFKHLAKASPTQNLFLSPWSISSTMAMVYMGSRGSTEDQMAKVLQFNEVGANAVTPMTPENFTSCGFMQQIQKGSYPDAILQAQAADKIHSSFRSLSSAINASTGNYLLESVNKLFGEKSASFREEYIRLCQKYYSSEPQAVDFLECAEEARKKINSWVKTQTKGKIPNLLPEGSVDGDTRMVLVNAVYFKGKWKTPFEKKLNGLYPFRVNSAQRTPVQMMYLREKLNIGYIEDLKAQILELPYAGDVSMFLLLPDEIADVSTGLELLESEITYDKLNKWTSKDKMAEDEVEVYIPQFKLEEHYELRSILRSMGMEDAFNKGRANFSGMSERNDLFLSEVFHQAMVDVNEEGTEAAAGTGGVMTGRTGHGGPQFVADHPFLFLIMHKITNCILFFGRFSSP

GST Average SNR [1]: 0.54
GST Average SNR [2]: 0.588
GST Average SNR (SCGB2A2-Mammaglobin-A): 0.983
GST Average SNR [3]: 1.18
GST Average SNR [4]: 1.3
GST Average SNR [5]: 0.0125
GST Average SNR [6]: 1.15
GST Average SNR [7]: 1.04
GST Average SNR [8]: -0.696
GST Average SNR [9]: 0.224
GST Average SNR [10]: -0.483
G9a-GST [11]: 13.8
G9a-GST (MGC4473, G9a-methylated): 21.7
G9a-GST [12]: 17.8
G9a-GST [13]: 29.1
B1: 3× Flag-3×MBT (designed binder)
chain: EEWSSSQPATGEKKECWSWESYLEEQKAITAPVSLFQDSQAVTHNKNGFKLGMKLEGIDPQHPSMYFILTVAEVCGYRLRLHFDGYSECHDFWVNANSPDIHPAGWFEKTGHKLQPPKGYKEEEFSWSQYLRSTRAQAAPKHLFVSQSHSPPPLGFQVGMKLEAVDRMNPSLVCVASVTDVVDSRFLVHFDNWDDTYDYWCDPSSPYIHPVGWCQKQGKPLTPPQDYPDPDNFCWEKYLEETGASAVPTWAFKVRPPHSFLVNMKLEAVDRRNPALIRVASVEDVEDHRIKIHFDGWSHGYDFWIDADHPDIHPAGWCSKTGHPLQPPLGPREPSSASPGG
notes: also called Flag-tagged 3×MBT; 3xFlag-3xMBT; not shown: made by PreScission cleavage of GST-3× Flag-3×MBT
